Data taken from patent publication US20260176324A1 (published 2026).

T1: KRAS G12V peptide on HLA-A*11:01 (human)
T1 peptide: VVGAVGVGK

T2: KRAS G12V peptide on HLA-A*11:01 (human)
T2 peptide: VVVGAVGVGK


Legend:
[1] = molecular target: T1, KRAS G12V peptide on HLA-A*11:01; experiment: multimer staining
[2] = molecular target: T1, KRAS G12V peptide on HLA-A*11:01; experiment: cytokine release
Procedure: (§1) The affinity assay of TCR-T cells was performed as follows. Antigen-presenting cells (HLA-A*11:01 overexpressing T2 cells or K562 cells) were collected, and counted. […] 1 mL of cell suspension was added to each well of a 24-well plate, respectively. […] The cells were incubated in an incubator (37° C., 5% CO₂) for 2 h. After incubation, the antigen-presenting cells were collected and washed, and 100 μl of the antigen-presenting cells at 1E6/mL were added to corresponding wells of 96-well plates. […] Various nwTCR-T cells were co-cultured with the antigen-presenting cells (37° C., 5% CO₂) for 16 h respectively.

[3] = molecular target: T2, KRAS G12V peptide on HLA-A*11:01; experiment: multimer staining
[4] = molecular target: T2, KRAS G12V peptide on HLA-A*11:01; experiment: cytokine release
Procedure: as §1

| Binder | binding result [1] | binding result [2] | binding result [3] | binding result [4] |
| --- | --- | --- | --- | --- |
| nwTCR-2561 (TCR, V domains shown) Valpha: GNSVTQMEGPVTLSEEAFLTINCTYTATGYPSLFWYVQYPGEGLQLLLKATKADDKGSNKGFEATYRKETTSFHLEKGSVQVSDSAVYFCALPAGGGADGLTFGKGTHLIIQP Vbeta: GAGVSQSPSNKVTEKGKDVELRCDPISGHTALYWYRQSLGQGLEFLIYFQGNSAPDKSGLPSDRFSAERTGGSVSTLTIQRTQQEDSAVYLCASSFGTSGDQYEQYFGPGTRLTVT | recognises |  |  |  |
| nwTCR-1708 (TCR, V domains shown) Valpha: QKEVEQNSGPLSVPEGAIASLNCTYSDRGSQSFFWYRQYSGKSPELIMFIYSNGDKEDGRFTAQLNKASQYVSLLIRDSQPSDSATYLCAVNMPGNMLTFGGGTRLMVKP Vbeta: DARVTQTPRDKVTEMGQEVTMRCQPILGHNTVFWYRQTMMQGLELLAYFRNRAPLDDSGMPKDRFSAEMPDATLATLKIQPSEPRDSAVYFCASGPEGLDNEQFFGPGTRLTVL |  | recognises | recognises |  |
| nwTCR-0127 (TCR, V domains shown) Valpha: DQQVKQNSPSLSVQEGRISILNCDYTNSMFDYFLWYKKYPAEGPTFLISISSIKDKNEDGRFTVFLNKSAKHLSLHIVPSQPGDSAVYFCAGYQGGYKLSFGAGTTVTVRA Vbeta: EAQVTQNPRYLITVTGKKLTVTCSQNMNHEYMSWYRQDPGLGLRQIYYSMNVEVTDKGDVPEGYKVSRKEKRNFPLILESPSPNQTSLYFCASSTRDRDNEQFFGPGTRLTVL |  | recognises | recognises |  |
| nwTCR-2241 (TCR, V domains shown) Valpha: ELKVEQNPLFLSMQEGKNYTIYCNYSTTSDRLYWYRQDPGKSLESLFVLLSNGAVKQEGRLMASLDTKARLSTLHITAAVHDLSATYFCAVDKAAGNKLTFGGGTRVLVKP Vbeta: GEEVAQTPKHLVRGEGQKAKLYCAPIKGHSYVFWYQQVLKNEFKFLISFQNENVFDETGMPKERFSAKCLPNSPCSLEIQATKLEDSAVYFCASSPHHRYEQYFGPGTRLTVT |  |  | recognises |  |
| nwTCR-0126 (TCR, V domains shown) Valpha: AQKVTQAQTEISVVEKEDVTLDCVYETRDTTYYLFWYKQPPSGELVFLIRRNSFDEQNEISGRYSWNFQKSTSSFNFTITASQVVDSAVYFCALSDPRYSGGGADGLTFGKGTHLIIQP Vbeta: DSGVTQTPKHLITATGQRVTLRCSPRSGDLSVYWYQQSLDQGLQFLIQYYNGEERAKGNILERFSAQQFPDLHSELNLSSLELGDSALYFCASSPRGGDSILDTQYFGPGTRLTVL |  | recognises | recognises |  |
| nwTCR-2392 (TCR, V domains shown) Valpha: DQQVKQNSPSLSVQEGRISILNCDYTNSMFDYFLWYKKYPAEGPTFLISISSIKDKNEDGRFTVFLNKSAKHLSLHIVPSQPGDSAVYFCAASYAGSARQLTFGSGTQLTVLP Vbeta: GAGVSQSPSNKVTEKGKDVELRCDPISGHTALYWYRQRLGQGLEFLIYFQGNSAPDKSGLPSDRFSAERTGESVSTLTIQRTQQEDSAVYLCASSPGGNYGYTFGSGTRLTVV | recognises |  |  |  |
| nwTCR-2629 (TCR, V domains shown) Valpha: AQSVTQLDSHVSVSEGTPVLLRCNYSSSYSPSLFWYVQHPNKGLQLLLKYTSAATLVKGINGFEAEFKKSETSFHLTKPSAHMSDAAEYFCVVSVWTDKLIFGTGTRLQVFP Vbeta: GAVVSQHPSWVICKSGTSVKIECRSLDFQATTMFWYRQFPKQSLMLMATSNEGSKATYEQGVEKDKFLINHASLTLSTLTVTSAHPEDSSFYICSANRDFGIYEQYFGPGTRLTVT | recognises |  |  |  |
| nwTCR-2595 (TCR, V domains shown) Valpha: ILNVEQSPQSLHVQEGDSTNFTCSFPSSNFYALHWYRWETAKSPEALFVMTLNGDEKKKGRISATLNTKEGYSYLYIKGSQPEDSATYLCAFNNQGGKLIFGQGTELSVKP Vbeta: EAQVTQNPRYLITVTGKKLTVTCSQNMNHEYMSWYRQDPGLGLRQIYYSMNVEVTDKGDVPEGYKVSRKEKRNFPLILESPSPNQTSLYFCASSSGTGGGAEAFFGQGTRLTVV | recognises |  |  | recognises |
| nwTCR-2563 (TCR, V domains shown) Valpha: SQQGEEDPQALSIQEGENATMNCSYKTSINNLQWYRQNSGRGLVHLILIRSNEREKHSGRLRVTLDTSKKSSSLLITASRAADTASYFCATDRTGGYNKLIFGAGTRLAVHP Vbeta: ETGVTQSPTHLIKTRGQQVTLRCSSQSGHNTVSWYQQALGQGPQFIFQYYREEENGRGNFPPRFSGLQFPNYSSELNVNALELDDSALYLCASSLQTGDEQYFGPGTRLTVT |  | recognises | recognises |  |

Next, values leading:

| binding result [1] | binding result [2] | binding result [3] | binding result [4] | Binder |
| --- | --- | --- | --- | --- |
| recognises |  |  |  | nwTCR-2310 (TCR, V domains shown) Valpha: SQQGEEDPQALSIQEGENATMNCSYKTSINNLQWYRQNSGRGLVHLILIRSNEREKHSGRLRVTLDTSKKSSSLLITASRAADTASYFCATDGGGGADGLTFGKGTHLIIQP Vbeta: DSGVTQTPKHLITATGQRVTLRCSPRSGDLSVYWYQQSLDQGLQFLIQYYNGEERAKGNILERFSAQQFPDLHSELNLSSLELGDSALYFCASSLHRDSDTEAFFGQGTRLTVV |
| recognises |  |  |  | nwTCR-2390 (TCR, V domains shown) Valpha: SQQGEEDPQALSIQEGENATMNCSYKTSINNLQWYRQNSGRGLVHLILIRSNEREKHSGRLRVTLDTSKKSSSLLITASRAADTASYFCATDSGGGADGLTFGKGTHLIIQP Vbeta: DSGVTQTPKHLITATGQRVTLRCSPRSGDLSVYWYQQSLDQGLQFLIQYYNGEERAKGNILERFSAQQFPDLHSELNLSSLELGDSALYFCASSHGRDSTDTQYFGPGTRLTVL |
|  | recognises | recognises |  | nwTCR-0125 (TCR, V domains shown) Valpha: AQKVTQAQTEISVVEKEDVTLDCVYETRDTTYYLFWYKQPPSGELVFLIRRNSFDEQNEISGRYSWNFQKSTSSFNFTITASQVVDSAVYFCARDQTGANNLFFGTGTRLTVIP Vbeta: DVKVTQSSRYLVKRTGEKVFLECVQDMDHENMFWYRQDPGLGLRLIYFSYDVKMKEKGDIPEGYSVSREKKERFSLILESASTNQTSMYLCASSPPHLASGASTDTQYFGPGTRLTVL |
| recognises |  |  |  | nwTCR-2424 (TCR, V domains shown) Valpha: QKEVEQNSGPLSVPEGAIASLNCTYSDRGSQSFFWYRQYSGKSPELIMFIYSNGDKEDGRFTAQLNKASQYVSLLIRDSQPSDSATYLCARKKTSYDKVIFGPGTSLSVIP Vbeta: DSGVTQTPKHLITATGQRVTLRCSPRSGDLSVYWYQQSLDQGLQFLIQYYNGEERAKGNILERFSAQQFPDLHSELNLSSLELGDSALYFCASSLGDSEQFFGPGTRLTVL |
|  |  | recognises |  | nwTCR-1862 (TCR, V domains shown) Valpha: GEDVEQSLFLSVREGDSSVINCTYTDSSSTYLYWYKQEPGAGLQLLTYIFSNMDMKQDQRLTVLLNKKDKHLSLRIADTQTGDSAIYFCAERGTDSWGKLQFGAGTQVVVTP Vbeta: GAVVSQHPSWVICKSGTSVKIECRSLDFQATTMFWYRQFPKQSLMLMATSNEGSKATYEQGVEKDKFLINHASLTLSTLTVTSAHPEDSSFYICSARFANYYEQYFGPGTRLTVT |
|  |  | recognises |  | nwTCR-2308 (TCR, V domains shown) Valpha: KDQVFQPSTVASSEGAVVEIFCNHSVSNAYNFFWYLHFPGCAPRLLVKGSKPSQQGRYNMTYERFSSSLLILQVREADAAVYYCAGSNDYKLSFGAGTTVTVRA Vbeta: EAQVTQNPRYLITVTGKKLTVTCSQNMNHEYMSWYRQDPGLGLRQIYYSMNVEVTDKGDVPEGYKVSRKEKRNFPLILESPSPNQTSLYFCASSTSPYNEQFFGPGTRLTVL |
